The values below come from patent publication US12404493B2, “Methods for the re-derivation of diverse pluripotent stem cell-derived brown fat cells” (AgeX Therapeutics, Inc., priority 2015, dated 2025).

The subject of the assay is hES cell-derived clonal embryonic progenitor cell lines. Nature of the assay: Differentiation of clonal embryonic progenitor cell lines into BAT cells in HyStem beads, marker expression by Illumina microarray / qPCR. The class given is cell-based, human. The settings on record: 10 ng/mL BMP4 or 100 ng/mL BMP7 added to rosiglitazone/T3/CL-316,243 differentiation in HyStem beads. The method, then: Then, HyStem (1 ml, 1% w/v) is mixed with Gelin-S (1 ml, 1% w/v) immediately before use. […] Following complete gelation (20 min), Differentiation Medium is added to each well. […] Plates were then placed in a humidified incubator at 37° C. with ambient O2 and 10% CO2, and the cells were fed three-times weekly.
Total RNA was extracted directly from cells growing in 6-well plates or 10 cm tissue culture dishes using Qiagen RNeasy mini kits according to the manufacturer's instructions. RNA concentrations were measured using a Beckman DU530 or Nanodrop spectrophotometer and RNA quality was determined by denaturing agarose gel electrophoresis or using an Agilent 2100 bioanalyzer. […] Values of less than 120 relative fluorescence units (RFUs) were considered as nonspecific background signal.

B1: BMP4: Bone Morphogenetic Protein 4, member of the TGFβ superfamily (protein, UniProt P12644 293-408, looked up)
Bone morphogenetic protein 4: SPKHHSQRARKKNKNCRRHSLYVDFSDVGWNDWIVAPPGYQAFYCHGDCPFPLADHLNSTNHAIVQTLVNSVNSSIPKACCVPTELSAISMLYLDEYDKVVLKNYQEMVVEGCGCR
Turning to B1, the cell viability entry is reported as “greater levels of cell viability”.

B2: BMP7: Bone Morphogenetic Protein 7, member of the TGFβ superfamily (protein, UniProt P18075 293-431, looked up)
Bone morphogenetic protein 7: STGSKQRSQNRSKTPKNQEALRMANVAENSSSDQRQACKKHELYVSFRDLGWQDWIIAPEGYAAYYCEGECAFPLNSYMNATNHAIVQTLVHFINPETVPKPCCAPTQLNAISVLYFDDSSNVILKKYRNMVVRACGCH
Regarding B2, the cell viability result is on record as “greater levels of cell viability”.
